Assay results published in patent US20240400693A1 (Chugai, published 2024).
Where a chain is given by its changes, count along the chain named. Where two headings read alike, the source gives them in different places.

T1: HLA-DQ6.3 on Ba/F3 cells (human, UniProt P01920 33-230, limits assumed)
T1 construct: whole, on cells; also called Ba/F3-HLA-DQ6.3
T1 MHC II alpha: not shown
T1 MHC II beta: not shown

T2: HLA-DR on Ba/F3 cells (human, UniProt P01903 26-216; P79483 30-227, limits assumed)
T2 construct: whole, on cells; also called Ba/F3-HLA-DR
T2 MHC II alpha: not shown
T2 MHC II beta: not shown

T3: HLA-DQ5.1 on Ba/F3 cells (human, limits assumed)
T3 construct: whole, on cells; also called Ba/F3-HLA-DQ5.1
T3 MHC II alpha: not shown
T3 MHC II beta: not shown

T4: HLA-DQ7.3 on Ba/F3 cells (human, UniProt P01909 24-216; P01920 33-230, limits assumed)
T4 construct: whole, on cells; also called Ba/F3-HLA-DQ7.3
T4 MHC II alpha: not shown
T4 MHC II beta: not shown

T5: HLA-DQ2.2 on Ba/F3 cells (human, UniProt P01909 24-216, limits assumed)
T5 construct: whole, on cells; also called Ba/F3-HLA-DQ2.2
T5 MHC II alpha: not shown
T5 MHC II beta: not shown

T6: HLA-DQ8 on Ba/F3 cells (human, UniProt P01909 24-216; P01920 33-230, limits assumed)
T6 construct: whole, on cells; also called Ba/F3-HLA-DQ8
T6 MHC II alpha: not shown
T6 MHC II beta: not shown

B1: DQN0344H1013/L0620//DQN0385H1270/L0722-F6 (bispecific antibody)
heavy 1: QVQLVESGGGVVQPGRSLRLSCAASGFTFSSAYWMVWVRQAPGQGLEWMGAVYGGSDTTYYAKWTEGRFTISRDTSKNTLYLQMNSLRAEDTAVYYCAREPLNYYYYGELNVWGQGTLVTVSSASTKGPSVFPLAPSSKSTSGGTAALGCLVKDYFPEPVTVSWNSGALTSGVHTFPAVLKSSGLYSLSSVVTVPSSSLGTQTYICNVNHKPSNTKVDKRVEPKSCDKTHTCPPCPAPELRRGPSVFLFPPKPKDTLMISRTPEVTCVVVDVSHEDPEVKFNWYVDGVEVHNAKTKPREEQYNSTYRVVSVLTVLHQDWLNGKEYKCKVSNKALPAPIEKTISKAKGQPREPQVYTLPPSREEMTKNQVSLTCLVKGFYPSDIAVEWESNGQPENNYKTTPPYLDSDGSFFLYSKLTVDKSRWQEGNVFSCSVLHEALHAHYTREELSLSP
light 1: DIQMTQSPSSLSASVGDRVTITCQATENIYSGLAWYQQKPGKAPKLLIYYVSTLAYGIPARFSGSGSGTDFTLTISSLEPEDFAVYYCQTYEDVSAVTFGQGTKVEIKRTVAAPSVFIFPPSDEQLKSGTAEVVCLLNNFYPREAKVQWKVDNALQSGNSEESVTEQDSKDSTYSLSSTLTLSKADYEKHKVYACEVTHQGLSSPVTKSFNRGEC
heavy 2: QVQLVESGGGVVQPGRSLRLSCAASGFTFSEWYFMSWVRQAPGKGLEWVASIDTGSGSIDYAEWVEGRFTISRDNSKNTLYLQMNSLRAEDTAVYYCARDIGIDYNFWGPGTLVTVSSASTKGPSVFPLAPSSKSTSGGTAALGCLVEDYFPEPVTVSWNSGALTSGVHTFPAVLESSGLYSLSSVVTVPSSSLGTKTYICNVNHKPSNTKVDKRVEPKSCDKTHTCPPCPAPELRRGPSVFLFPPKPKDTLMISRTPEVTCVVVDVSHEDPEVKFNWYVDGVEVHNAKTKPREEQYNSTYRVVSVLTVLHQDWLNGKEYKCKVSNKALPAPIEKTISKAKGQPREPQVYTLPPSRKEMTKNQVSLTCLVKGFYPSDIAVEWESNGQPENNYKTTPPYLDSDGSFFLYSKLTVDKSRWQQGNVFSCSVLHEALHAHYTRKELSLSP
light 2: DIQMTQSPSSLSASVGDRVTITCQTTQSISSYLNWYQQKPGQPPKLLIYYASTKAEGIPARFSGSGLGTDFTLTISSLQPEDFAVYYCHYGISKVSFGQGTKVEIKRTVAAPSVFIFPPSDEQLKSGTAKVVCLLNNFYPREAKVQWKVDNALQSGNSKESVTEQDSKDSTYSLSSTLTLSKADYEKHKVYACEVTHQGLSSPVTKSFNRGEC
B2: DQN0344H0976/L0591//DQN0385H1255/L0605-F6.v2 (bispecific antibody)
heavy 1: B1 heavy 1 with R16G, V112L, Y403V
light 1: B1 light 1 with N28E, A55Y, Y56E
heavy 2: B1 heavy 2 with E63G, G67E, Y398V
light 2: B1 light 2 with L67S, Q79E
B3: DQN0344H1013/L0620//DQN0385H1270/L0681-F6.v2 (bispecific antibody)
heavy 1: B1 heavy 1 with Y403V
light 1: B1 light 1
heavy 2: B1 heavy 2 with Y398V
light 2: B1 light 2 with Q79E
B4: DQN0344H1013/L0620//DQN0385H1521/L0605-F6.v2 (bispecific antibody)
heavy 1: B1 heavy 1 with Y403V
light 1: B1 light 1
heavy 2: B1 heavy 2 with S30E, E31S, Y398V
light 2: B1 light 2 with L67S, Q79E

Key:
[1] = biological target: T1, HLA-DQ6.3 on Ba/F3 cells; test: FACS, Ba/F3 cells; raw MFI
[2] = biological target: T7, HLA-DP on Ba/F3 cells (human, UniProt P20036 29-222; P04440 30-225, limits assumed); test: FACS, Ba/F3 cells; raw MFI
T7 construct: whole, on cells; also called Ba/F3-HLA-DP

[3] = biological target: T2, HLA-DR on Ba/F3 cells; test: FACS, Ba/F3 cells; raw MFI
[4] = biological target: T3, HLA-DQ5.1 on Ba/F3 cells; test: FACS, Ba/F3 cells; raw MFI
[5] = biological target: T8, HLA-DQ2.5 on IHW09023 cells loaded with BC hordein peptide (human; barley); test: cell-based or functional assay
[6] = biological target: T9, HLA-DQ2.5 on IHW09023 cells loaded with gamma 4d gliadin peptide (human; wheat); test: cell-based or functional assay
[7] = biological target: T10, HLA-DQ2.5 on IHW09023 cells loaded with gamma 4a gliadin peptide (human; wheat); test: cell-based or functional assay
[8] = biological target: T11, HLA-DQ2.5 on IHW09023 cells loaded with gamma 2 gliadin peptide (human; wheat); test: cell-based or functional assay
[9] = biological target: T12, HLA-DQ2.5 on IHW09023 cells loaded with 33mer gliadin peptide (human; wheat); test: cell-based or functional assay
[10] = biological target: T13, HLA-DQ2.5 on IHW09023 cells loaded with omega1/2 gliadin peptide (human; wheat); test: cell-based or functional assay
[11] = biological target: T14, HLA-DQ2.5 on IHW09023 cells loaded with gamma 1 gliadin peptide (human; wheat); test: cell-based or functional assay
[12] = biological target: T15, HLA-DQ2.5 on IHW09023 cells loaded with gamma 3 gliadin peptide (human; wheat); test: cell-based or functional assay
[13] = biological target: T16, HLA-DQ2.5 on Ba/F3 cells (human, UniProt P01909 24-216, limits assumed); test: FACS, Ba/F3 cells; %MFI: IC17dK 0, DQN0139bb 100
T16 construct: whole, on cells; MHC class II without fused peptide; also called Ba/F3-HLA-DQ2.5

[14] = biological target: T4, HLA-DQ7.3 on Ba/F3 cells; test: FACS, Ba/F3 cells; %MFI: IC17dK 0, DQN0139bb 100
[15] = biological target: T17, HLA-DQ7.5 on Ba/F3 cells (human, UniProt P01909 24-216; P01920 33-230, limits assumed); test: FACS, Ba/F3 cells; %MFI: IC17dK 0, DQN0139bb 100
T17 construct: whole, on cells; also called Ba/F3-HLA-DQ7.5

[16] = biological target: T5, HLA-DQ2.2 on Ba/F3 cells; test: FACS, Ba/F3 cells; %MFI: IC17dK 0, DQN0139bb 100
[17] = biological target: T6, HLA-DQ8 on Ba/F3 cells; test: FACS, Ba/F3 cells; %MFI: IC17dK 0, DQN0139bb 100
[18] = biological target: T8, HLA-DQ2.5 on IHW09023 cells loaded with …; test: cell-based or functional assay; remark: listed apart in the source
[19] = biological target: T9, HLA-DQ2.5 on IHW09023 cells loaded with …; test: cell-based or functional assay; remark: listed apart in the source
[20] = biological target: T10, HLA-DQ2.5 on IHW09023 cells loaded with …; test: cell-based or functional assay; remark: listed apart in the source
[21] = biological target: T11, HLA-DQ2.5 on IHW09023 cells loaded with …; test: cell-based or functional assay; remark: listed apart in the source
[22] = biological target: T12, HLA-DQ2.5 on IHW09023 cells loaded with …; test: cell-based or functional assay; remark: listed apart in the source
[23] = biological target: T13, HLA-DQ2.5 on IHW09023 cells loaded with …; test: cell-based or functional assay; remark: listed apart in the source
[24] = biological target: T14, HLA-DQ2.5 on IHW09023 cells loaded with …; test: cell-based or functional assay; remark: listed apart in the source
[25] = biological target: T15, HLA-DQ2.5 on IHW09023 cells loaded with …; test: cell-based or functional assay; remark: listed apart in the source
[26] = biological target: HLA-DQ2.2 on HBBB2.2 cells loaded with 33mer gliadin peptide (human; wheat); test: cell-based or functional assay

T7 sequence (P20036 29-222 limits assumed, chain 1 of 4, other chains not shown): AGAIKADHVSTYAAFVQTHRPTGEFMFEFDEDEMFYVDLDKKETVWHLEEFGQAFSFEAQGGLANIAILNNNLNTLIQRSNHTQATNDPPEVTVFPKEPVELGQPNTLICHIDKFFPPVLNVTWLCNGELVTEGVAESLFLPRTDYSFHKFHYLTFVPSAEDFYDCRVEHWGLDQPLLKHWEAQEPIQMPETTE
T7 sequence (P04440 30-225 limits assumed, chain 2 of 4, other chains not shown): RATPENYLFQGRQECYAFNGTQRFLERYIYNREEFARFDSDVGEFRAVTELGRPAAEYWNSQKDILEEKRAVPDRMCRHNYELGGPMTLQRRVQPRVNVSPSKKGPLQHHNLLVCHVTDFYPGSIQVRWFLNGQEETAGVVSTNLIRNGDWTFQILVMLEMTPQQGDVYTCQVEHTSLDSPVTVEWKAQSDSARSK

Binder	IC50 (ng/mL), BC hordein TCR, 250 nM BC hordein [18] [ng/mL]	IC50 (ng/mL), γ4d gliadin TCR, 100 µM γ4d gliadin [19] [ng/mL]	IC50 (ng/mL), γ4a gliadin TCR, 25 µM γ4a gliadin [20] [ng/mL]	IC50 (ng/mL), γ2 gliadin TCR, 250 nM γ2 gliadin [21] [ng/mL]	IC50 (ng/mL), α1a gliadin TCR, 250 nM 33mer gliadin [22] [ng/mL]	IC50 (ng/mL), α1b gliadin TCR, 250 nM 33mer gliadin [22] [ng/mL]	IC50 (ng/mL), α2 gliadin TCR, 250 nM 33mer gliadin [22] [ng/mL]	IC50 (ng/mL), ω1 gliadin TCR, 25 µM ω1/2 gliadin [23] [ng/mL]	IC50 (ng/mL), ω2 gliadin TCR, 250 nM ω1/2 gliadin [23] [ng/mL]	IC50 (ng/mL), γ1 gliadin TCR, 250 nM γ1 gliadin [24] [ng/mL]	IC50 (ng/mL), γ3 gliadin TCR, 100 µM γ3 gliadin [25] [ng/mL]	IC50 (ng/ml)_HLA-DQ2.2, α1a gliadin TCR, 25 µM 33mer gliadin [26] [ng/mL]	IC50 (ng/ml)_HLA-DQ2.2, α2 gliadin TCR, 1 µM 33mer gliadin [26] [ng/mL]	further results
B1	–	–	–	–	–	–	–	–	–	–	–	–	–	binding result [1]: no binding (tested: 0.05 micro g/mL); binding result [2]: no binding (tested: 0.05 micro g/mL); binding result [3]: no binding (tested: 0.05 micro g/mL); binding result [4]: no binding (tested: 0.05 micro g/mL); IC50 (ng/mL), BC hordein TCR, 250 nM BC hordein [5]: 9.7 ng/mL; IC50 (ng/mL), γ4d gliadin TCR, 100 µM γ4d gliadin [6]: 10.1 ng/mL; IC50 (ng/mL), γ4a gliadin TCR, 25 µM γ4a gliadin [7]: 1150 ng/mL; IC50 (ng/mL), γ2 gliadin TCR, 250 nM γ2 gliadin [8]: 277 ng/mL; IC50 (ng/mL), α1a gliadin TCR, 250 nM 33mer gliadin [9]: 0.27 ng/mL; IC50 (ng/mL), α1b gliadin TCR, 250 nM 33mer gliadin [9]: 1.25 ng/mL; IC50 (ng/mL), α2 gliadin TCR, 250 nM 33mer gliadin [9]: 0.33 ng/mL; IC50 (ng/mL), ω1 gliadin TCR, 25 µM ω1/2 gliadin [10]: 2.17 ng/mL; IC50 (ng/mL), ω2 gliadin TCR, 250 nM ω1/2 gliadin [10]: 0.22 ng/mL; IC50 (ng/mL), γ1 gliadin TCR, 250 nM γ1 gliadin [11]: 1.03 ng/mL; IC50 (ng/mL), γ3 gliadin TCR, 100 µM γ3 gliadin [12]: 3.31 ng/mL; binding result [13]: no binding (tested: 0.05 micro g/mL); binding result [14]: no binding (tested: 0.05 micro g/mL); binding result [15]: no binding (tested: 0.05 micro g/mL); binding result [16]: no binding (tested: 0.05 micro g/mL); binding result [17]: no binding (tested: 0.05 micro g/mL)
B2	9.52	8.69	636	252	0.46	1.33	0.29	1.62	0.18	1.62	1.55	1.72	9.48	–
B3	25.2	27.8	1980	280	0.63	1.42	0.53	3.19	0.49	5.85	4.84	1.62	4.6	–
B4	11.4	9.23	1250	785	0.6	1.81	0.33	1.96	0.2	1.9	1.21	1.16	6.51	–
